Experiment in all cases: Cell-based AP binding assay on transfected COS-1 cells
One assay concerns the target T1, APP (Homo sapiens, UniProt P05067).
T1 construct: expressed in transfected cells; host or cells: COS-1
Particulars: DR6-AP conditioned medium 1:1 with binding buffer, 90 minutes. The method, then: (§1) The materials and methods used to generate the data shown in this figure are as follows. To test whether APP directly interacts with DR6 extracellular domain, a cell-based A binding assay was carried out (FIG. 14B). To generate DR6 ectodomain-A fusion protein (DR6-AP), COS-1 cells cultured in DMEM/10% FBS (Gibco) medium were transfected with 15 microgram of DR6-AP fusion expression construct using FuGene transfection reagent (Roche) according to the manufacturer protocol. Twelve hours post-transfection, COS-1 cell medium was changed to OPTI-MEM (Invitrogen). Forty-eight hours post-transfection, COS-1 cell conditioned medium containing DR6-AP proteins was collected and filtered. The amount of DR6-AP proteins in the medium was quantified according to the following procedure. 100 microliters of 2×AP buffer (prepared by adding 100 mg Para-nitrophenyl phosphate (Sigma) and 15 microliter of 1M MgCl2 to 15 ml 2M diethanolamine pH 9.8) was mixed with equal volume of transfected COS cell conditioned medium or control conditioned medium from untransfected COS-1 cells. The color of the reaction was developed over 12-15 minutes, with the O.D. being in the linear range (0.1-1). The volume of reaction was then adjusted by adding 800 microliters of distilled water and the O.D. was measured at 405 nm absorbance wavelength. The concentration in nM was calculated according to the formula (for 100 microliter): C (nM)=O.D.×100×(60/developing time)/30. For the APP AP binding assay, COS-1 cells cultured in DMEM/10% FBS (Gibco) medium in 6-well culture dishes were transfected with 2 microgram of APP expressing vector per well using FuGene transfection reagent (Roche) according to the manufacturer protocol. Two days post-transfection, cells were washed twice with the binding buffer (HBSS, Gibco Cat. No. 14175-095, with 0.2% BSA, 0.1% NaN3, 5 mM CaCl2, 1 mM MgCl2, 20 mM HEPES, pH=7.0). […]

The target of the next assay is T2, DR6 receptor (Homo sapiens, UniProt O75509).
T2 construct: expressed in transfected cells; host or cells: COS-1
T2 sequence (O75509 42-655): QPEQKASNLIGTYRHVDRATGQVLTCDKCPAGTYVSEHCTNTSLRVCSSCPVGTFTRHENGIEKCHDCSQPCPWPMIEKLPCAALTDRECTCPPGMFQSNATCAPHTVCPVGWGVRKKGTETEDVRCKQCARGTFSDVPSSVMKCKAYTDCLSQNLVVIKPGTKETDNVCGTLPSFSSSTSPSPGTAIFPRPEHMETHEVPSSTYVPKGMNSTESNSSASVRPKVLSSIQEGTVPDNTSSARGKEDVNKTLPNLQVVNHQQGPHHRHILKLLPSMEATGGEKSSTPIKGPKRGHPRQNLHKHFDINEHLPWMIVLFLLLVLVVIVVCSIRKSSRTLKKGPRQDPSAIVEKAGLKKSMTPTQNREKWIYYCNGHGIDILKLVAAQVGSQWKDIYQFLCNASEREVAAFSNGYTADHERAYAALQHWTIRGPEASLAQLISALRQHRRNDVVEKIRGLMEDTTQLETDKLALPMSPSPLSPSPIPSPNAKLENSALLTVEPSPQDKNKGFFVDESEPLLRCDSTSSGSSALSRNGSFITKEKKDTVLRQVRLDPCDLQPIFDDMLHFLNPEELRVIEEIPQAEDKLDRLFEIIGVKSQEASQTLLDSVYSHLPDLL
Particulars: same conditions as APP. As for the experimental part: as §1

For the next assay, the target named is T3, p75NTR (Homo sapiens, UniProt P08138).
T3 construct: expressed in transfected cells; host or cells: COS-1
T3 sequence (P08138 29-427): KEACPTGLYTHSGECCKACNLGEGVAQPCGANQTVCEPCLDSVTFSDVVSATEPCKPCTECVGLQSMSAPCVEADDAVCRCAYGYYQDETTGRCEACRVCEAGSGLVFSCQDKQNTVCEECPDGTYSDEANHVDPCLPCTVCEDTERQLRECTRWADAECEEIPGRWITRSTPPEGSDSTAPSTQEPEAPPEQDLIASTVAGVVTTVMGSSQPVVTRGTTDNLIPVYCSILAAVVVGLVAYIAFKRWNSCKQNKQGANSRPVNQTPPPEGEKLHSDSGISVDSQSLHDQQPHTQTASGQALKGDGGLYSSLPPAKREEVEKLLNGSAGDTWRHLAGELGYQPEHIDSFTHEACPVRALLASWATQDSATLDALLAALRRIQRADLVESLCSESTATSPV
As to conditions: same conditions as APP. The method, then:
as §1

The source of these data is patent publication US20110223630A1, “METHOD FOR SCREENING FOR COMPOUNDS THAT INHIBIT NEURODEGENERATION” (priority 2008, published 2011).

T1 sequence (P05067 18-770): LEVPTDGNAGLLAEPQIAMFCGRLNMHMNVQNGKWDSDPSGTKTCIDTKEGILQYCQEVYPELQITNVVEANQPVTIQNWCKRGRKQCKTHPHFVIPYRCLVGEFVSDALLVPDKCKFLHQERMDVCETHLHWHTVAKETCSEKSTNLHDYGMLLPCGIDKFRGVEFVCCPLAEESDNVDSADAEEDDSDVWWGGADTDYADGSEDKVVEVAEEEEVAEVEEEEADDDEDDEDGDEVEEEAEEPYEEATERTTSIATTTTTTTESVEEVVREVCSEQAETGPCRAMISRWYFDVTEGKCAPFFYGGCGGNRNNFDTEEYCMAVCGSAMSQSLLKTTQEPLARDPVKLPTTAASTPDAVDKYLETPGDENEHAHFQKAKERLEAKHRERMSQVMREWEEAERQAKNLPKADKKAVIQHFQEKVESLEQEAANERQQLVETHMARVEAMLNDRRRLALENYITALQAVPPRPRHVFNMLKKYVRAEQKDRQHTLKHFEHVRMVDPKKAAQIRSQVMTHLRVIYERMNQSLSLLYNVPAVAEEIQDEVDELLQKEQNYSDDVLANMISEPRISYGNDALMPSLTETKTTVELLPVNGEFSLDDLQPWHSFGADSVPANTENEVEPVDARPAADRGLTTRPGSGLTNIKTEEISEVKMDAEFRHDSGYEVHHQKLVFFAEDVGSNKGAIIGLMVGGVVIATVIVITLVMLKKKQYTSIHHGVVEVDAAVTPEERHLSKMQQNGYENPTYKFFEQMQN

B1: DR6-AP: mouse DR6 ectodomain fused to human placental alkaline phosphatase (protein)
chain: QPEQKTLSLPGTYRHVDRTTGQVLTCDKCPAGTYVSEHCTNMSLRVCSSCPAGTFTRHENGIERCHDCSQPCPWPMIERLPCAALTDRECICPPGMYQSNGTCAPHTVCPVGWGVRKKGTENEDVRCKQCARGTFSDVPSSVMKCKAHTDCLGQNLEVVKPGTKETDNVCGMRLFFSSTNPPSSGTVTFSHPEHMESHDVPSSTYEPQGMNSTDSNSTASVRTKVPSGIEEGTVPDNTSSTSGKEGTNRTLPNPPQVTHQQAPHHRHILKLLPSSMEATGEKSSTAIKAPKRGHPRQNAHKHFDINEH
modifications: left off: large carriers
notes: mouse DR6 ectodomain fused to human placental alkaline phosphatase
Consider B1, for which, in the assay with APP, the “binding of DR6 ectodomain-AP to APP expressing COS cells” value is recorded as “binds APP expressed by cultured cells”. Also, the “binding of DR6 ectodomain-AP to DR6 receptor expressing cells” value in the assay with DR6 receptor is reported as “does NOT bind”. The “binding of DR6 ectodomain-AP to p75NTR expressing cells” value with p75NTR is recorded as “does NOT bind”.
